According to publication PMC6856059 (Nature, 2019):

Biological target: the molecule itself
Test: cryo-EM structure

B1: N-terminally truncated zebrafish NKCC1 (domain or fragment)
chain: KFGWIKGVLVRCMLNIWGVMLFIRMTWIVGQAGIAYSCIIVIMATVVTTITGCSTSAIATNGFVRGGGAYYLISRSLGPEFGGSIGLIFAFANAVAVAMYVVGFAETVVELLMDSGLLMIDQTNDIRVIGTITVILLLGISVAGMEWEAKAQIFLLVILITAIFNYFIGSFIAVDSKKKFGFFSYDAGILAENFGPDFRGQTFFSVFSIFFPAATGILAGANISGDLADPQMAIPKGTLLAILITGLVYVGVAISAGACIVRDATGIESNFTLISNCTDAACKYGYDFSSCRPTVEGEVSSCKFGLHNDFQVMSVVSGFSPLISAGIFSATLSSALASLVSAPKVFQALCKDNIYPGIAIFGKGYGKNNEPLRGYFLTFGIALAFILIAELNVIAPIISNFFLASYALINFSVFHASLANSPGWRPSFKYYNMWASLAGAILCCVVMFIINWWAALLTNVIVLSLYIYVSYKKPDVNWGSSTQALTYHQALTHSLQLCGVADHIKTFRPQCLVMTGAPNSRPAILHLVHAFTKNVGLMLCGHVRISSRRPNFKELNSDMLRYQRWLLNNNSKAFYTCVVAEDLRQGTQYMLQAAGLGRLRPNTLVIGFKNDWRTGDIKEVETYINLIHDAFDFQYGVVILRLREGLDISHIQGQDDSSGMKDVVVSVDISKDSDGDSSKPSSKATSVQNSPAVQKDEDDDGKAHTQPLLKKDKKSPTVPLNVADQRLLDASQQFQQKQGKGTVDVWWLFDDGGLTLLIPYLIANKKKWKDCKIRVFIGGKINRIDHDRRAMATLLSKFRIDFSDITVLGDINTKPKSEGLTEFAEMIEPYKLREDDMEQEAAEKLKSEEPWRITDNELELYKAKGNRQIRLNELLKEHSSTANLIVMSMPLARKGAVSSALYMAWLDTLSKDLPPILLVRGNHQSVLTFYS
stoichiometry N: 2
